Laboratory results taken from article PMC4117941 (Genes & Development, 2014).

Columns and labels:
[1] = target: T1, Mcm4 (subunit of the purified MCM2–7 hexamer) (S. cerevisiae, UniProt P30665 1-933); test: EM, three-dimensional reconstruction
T1 sequence: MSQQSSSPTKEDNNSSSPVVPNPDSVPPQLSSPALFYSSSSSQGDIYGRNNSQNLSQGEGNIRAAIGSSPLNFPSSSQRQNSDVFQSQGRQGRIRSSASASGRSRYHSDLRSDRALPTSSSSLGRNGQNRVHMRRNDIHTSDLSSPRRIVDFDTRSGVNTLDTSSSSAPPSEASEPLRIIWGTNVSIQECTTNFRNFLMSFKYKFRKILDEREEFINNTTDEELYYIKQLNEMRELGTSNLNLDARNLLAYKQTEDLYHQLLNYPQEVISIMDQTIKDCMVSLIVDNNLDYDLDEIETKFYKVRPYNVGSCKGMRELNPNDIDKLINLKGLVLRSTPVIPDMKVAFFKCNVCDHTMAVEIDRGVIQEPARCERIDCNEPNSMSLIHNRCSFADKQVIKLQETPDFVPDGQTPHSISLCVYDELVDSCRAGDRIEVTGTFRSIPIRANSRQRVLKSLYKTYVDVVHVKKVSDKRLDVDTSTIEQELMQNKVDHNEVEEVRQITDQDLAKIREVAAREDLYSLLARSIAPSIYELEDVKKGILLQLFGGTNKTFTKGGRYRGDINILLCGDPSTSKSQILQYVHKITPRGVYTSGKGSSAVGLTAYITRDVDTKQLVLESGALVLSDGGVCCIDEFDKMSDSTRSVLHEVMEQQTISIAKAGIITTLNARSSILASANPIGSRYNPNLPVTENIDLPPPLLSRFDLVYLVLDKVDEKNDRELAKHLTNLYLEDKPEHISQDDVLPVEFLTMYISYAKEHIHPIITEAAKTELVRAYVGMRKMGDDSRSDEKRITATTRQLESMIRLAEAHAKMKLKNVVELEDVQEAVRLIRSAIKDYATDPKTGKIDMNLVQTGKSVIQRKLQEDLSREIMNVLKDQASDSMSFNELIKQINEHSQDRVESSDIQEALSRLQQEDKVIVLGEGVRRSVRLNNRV

[2] = target: Mcm3 (HA-Mcm3, subunit of the purified MCM2–7 hexamer) (S. cerevisiae, UniProt P24279 1-971); test: EM, three-dimensional reconstruction
Mcm3 (HA-Mcm3, subunit of the purified MCM2–7 hexamer), sequence (P24279 whole entry): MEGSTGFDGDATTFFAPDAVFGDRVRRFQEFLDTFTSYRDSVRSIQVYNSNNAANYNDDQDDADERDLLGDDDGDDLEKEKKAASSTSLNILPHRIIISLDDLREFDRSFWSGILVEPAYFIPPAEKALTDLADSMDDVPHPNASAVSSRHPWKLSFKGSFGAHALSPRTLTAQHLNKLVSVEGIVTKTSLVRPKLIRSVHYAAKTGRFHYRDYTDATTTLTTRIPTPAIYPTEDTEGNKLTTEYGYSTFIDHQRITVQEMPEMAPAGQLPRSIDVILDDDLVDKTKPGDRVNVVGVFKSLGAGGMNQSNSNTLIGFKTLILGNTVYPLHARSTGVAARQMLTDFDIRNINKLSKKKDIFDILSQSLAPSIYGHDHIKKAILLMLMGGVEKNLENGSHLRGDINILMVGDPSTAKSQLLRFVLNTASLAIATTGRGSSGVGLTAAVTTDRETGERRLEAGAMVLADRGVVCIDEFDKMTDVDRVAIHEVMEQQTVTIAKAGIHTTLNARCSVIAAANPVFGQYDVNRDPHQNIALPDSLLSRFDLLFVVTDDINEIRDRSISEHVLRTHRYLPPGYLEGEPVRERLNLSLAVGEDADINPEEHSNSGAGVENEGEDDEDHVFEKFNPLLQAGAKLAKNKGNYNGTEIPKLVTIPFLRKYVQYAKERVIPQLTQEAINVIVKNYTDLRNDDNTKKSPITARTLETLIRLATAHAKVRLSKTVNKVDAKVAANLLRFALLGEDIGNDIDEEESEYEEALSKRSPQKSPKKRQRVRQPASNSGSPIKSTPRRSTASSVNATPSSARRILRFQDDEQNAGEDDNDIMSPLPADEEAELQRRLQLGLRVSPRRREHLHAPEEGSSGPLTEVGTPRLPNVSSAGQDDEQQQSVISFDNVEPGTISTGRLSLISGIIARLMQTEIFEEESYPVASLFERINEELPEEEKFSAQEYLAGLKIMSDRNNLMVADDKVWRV

binding result [1]: binds
binding result [2]: binds
B1: Mcm7 (subunit of the purified MCM2–7 hexamer) (natural protein)
chain: MSAALPSIQLPVDYNNLFNEITDFLVTFKQDTLSSDATRNENEDENLDAENIEQHLLEKGPKYMAMLQKVANRELNSVIIDLDDILQYQNEKFLQGTQADDLVSAIQQNANHFTELFCRAIDNNMPLPTKEIDYKDDVLDVILNQRRLRNERMLSDRTNEIRSENLMDTTMDPPSSMNDALREVVEDETELFPPNLTRRYFLYFKPLSQNCARRYRKKAISSKPLSVRQIKGDFLGQLITVRGIITRVSDVKPAVEVIAYTCDQCGYEVFQEVNSRTFTPLSECTSEECSQNQTKGQLFMSTRASKFSAFQECKIQELSQQVPVGHIPRSLNIHVNGTLVRSLSPGDIVDVTGIFLPAPYTGFKALKAGLLTETYLEAQFVRQHKKKFASFSLTSDVEERVMELITSGDVYNRLAKSIAPEIYGNLDVKKALLLLLVGGVDKRVGDGMKIRGDINVCLMGDPGVAKSQLLKAICKISPRGVYTTGKGSSGVGLTAAVMKDPVTDEMILEGGALVLADNGICCIDEFDKMDESDRTAIHEVMEQQTISISKAGINTTLNARTSILAAANPLYGRYNPRLSPLDNINLPAALLSRFDILFLMLDIPSRDDDEKLAEHVTYVHMHNKQPDLDFTPVEPSKMREYIAYAKTKRPVMSEAVNDYVVQAYIRLRQDSKREMDSKFSFGQATPRTLLGIIRLSQALAKLRLADMVDIDDVEEALRLVRVSKESLYQETNKSKEDESPTTKIFTIIKKMLQETGKNTLSYENIVKTVRLRGFTMLQLSNCIQEYSYLNVWHLINEGNTLKFVDDGTMDTDQEDSLVSTPKLAPQTTASANVSAQDSDIDLQDA
